Assay [1] deals with T1, Monomeric EGFR extracellular domain (ProSpec Bio, PKA-344) (UniProt P00533 25-645, limits assumed).
T1 construct: extracellular domain; Bought reagent; also called EGFR ECD
Put plainly: BLI (BLItz), antibody on anti-human IgG Fc tips, EGFR ECD 588 nM; benchmark antibody.
Protocol: Monomeric EGFR extracellular domain binding was measured in a biolayer interferometry (BLI) binding assay on a BLItz instrument (ForteBio, Inc.). […] Binding of EGFR ECD to the tips was recorded as biolayer interferometry signals (Δnm) over an association time of 120 seconds.

The target in assay [2] is T2, SI-2C1, dimeric EGFR ECD fused to rabbit Fc (UniProt P00533 25-645, limits assumed).
T2 construct: extracellular domain; Made in house
Put plainly: ELISA, dimeric EGFR ECD-rabbit Fc coated, anti-human IgG-HRP detection. On the technique in general: ELISA stands for enzyme-linked immunosorbent assay.
Protocol: ELISA was performed using dimeric EGFR ECD reagent, SI-2C1, fused to rabbit Fc created in house. EGFR was coated onto Maxisorp immunoplates (Nunc) at 3 μg/mL in PBS at 4° C. overnight. Plates were blocked in PBS with 3% BSA and 0.05% Tween20 for 2 hours at room temperature. […] 3 washes with PBST (1% BSA) were performed between each step.

The target in assay [3] is T1, Monomeric EGFR extracellular domain …. Put plainly: BLI (BLItz), antibody on anti-human IgG Fc tips, EGFR ECD 200 nM then Her3 ECD 200 nM.
Protocol: Bispecific binding to EGFR and Her3 extracellular domains was measured in a biolayer interferometry (BLI) binding assay on a BLItz instrument (ForteBio, Inc.). […] Binding of EGFR ECD to the tips was recorded as biolayer interferometry signals (Δnm) over an association time of 120 seconds.

B1: SI-1C4 (bispecific antibody, human IgG1, kappa, V domains shown)
VH: EVQLVESGGGLVQPGGSLRLSCAASGFTLSGDWIHWVRQAPGKGLEWVGEISAAGGYTDYADSVKGRFTISADTSKNTAYLQMNSLRAEDTAVYYCARESRVSFEAAMDYWGQGTLVTVSS
VL: DIQMTQSPSSLSASVGDRVTITCRASQNIATDVAWYQQKPGKAPKLLIYSASFLYSGVPSRFSGSGSGTDFTLTISSLQPEDFATYYCQQSEPEPYTFGQGTKVEIKR
notes: also called IC4
For the molecule B1, the binding result in assay [1] was “binds”.

B2: SI-1C5 (antibody, human IgG1, kappa, V domains shown)
VH: QVQLQQSGAEVKKPGSSVKVSCKASGYTFTNYYIYWVRQAPGQGLEWIGGINPTSGGSNFNEKFKTRVTITVDESTNTAYMELSSLRSEDTAFYFCARQGLWFDSDGRGFDFWGQGSTVTVSS
VL: DIQMTQSPSSLSASVGDRVTITCRSSQNIVHSNGNTYLDWYQQTPGKAPKLLIYKVSNRFSGVPSRFSGSGSGTDFTFTISSLQPEDIATYYCFQYSHVPWTFGQGTKLQITR
notes: Monospecific anti-EGFR antibody
B2: the binding result in assay [2] is reported as “binds”.

B3: SI-1X1 (bispecific antibody, human IgG1, kappa)
heavy: not shown
light: QSALTQPASVSGSPGQSITISCTGTSSDVGGYNFVSWYQQHPGKAPKLMIYDVSDRPSGVSDRFSGSKSGNTASLIISGLQADDEADYYCSSYGSSSTHVIFGGGTKLTVLRTVAAPSVFIFPPSDEQLKSGTASVVCLLNNFYPREAKVQWKVDNALQSGNSQESVTEQDSKDSTYSLSSTLTLSKADYEKHKVYACEVTHQGLSSPVTKSFNRGEC
notes: Tetravalent IgG-(G4S)2-scFv; heavy chain entry holds gamma-1 heavy chain, connector and scFv; Anti-Her3 IgG moiety, anti-EGFR scFv
Regarding B3, the binding result in assay [3] is given as “binds”.

(Values after patent US20210277128A1 (published 2021).)
